In the supplement of paper PMC7877785:
± gives the uncertainty stated by the source.

Test: self-splicing fitness, log relative to wild type (ln ratio); higher = more splicing; Tetrahymena group I intron in knt gene, E. coli kanamycin selection, DiMSum; sequences stand for … in CUCUCU…GGAGGGAAAAGUUAUCAGGCAUGCACCUGGUAGCUAGUCUUUAAACCAAUAGAUUGCAUCGGUUUAAAAGGCAAGACCGUCAAAUUGCGGGAAAGGGGUCAACAGCCGUUCAGUACCAAGUCUCAGGGGAAACUUUGAGAUGGCCUUGCAAAGGGUAUGGUAAUAAGCUGACGGACAUGGUCCUAACCACGCAGCCAAGUCCUAAGUCAACAGAUCUUCUGUUGAUAUGGAUGCAGUUCACAGACUAAAUGUCGGUCGGGGAAGAUGUAUUCUUCUCAUAAGAUAUAGUCGGACCUCUCCUUAAUGGGAGCUAGCGGAUGAAGUGAUGCAACACUGGAGCCGCUGGGAACUAAUUUGUAUGCGAAAGUAUAUUGAUUAGUUUUGGAGUACUCGUGGUCG
Outline: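 Six replicate transformations of E. coli BL21(DE3) with a pET-22b(+) library were grown overnight at 37°C or 30°C. The library randomised all eight P1ex-region intron nucleotides, the intron lying in the knt kanamycin-resistance gene, and plates were LB agar with or without 25 μg/mL kanamycin plus 100 μg/mL carbenicillin, 50 μM IPTG and 0.2% rhamnose. Pooled colonies were amplicon-sequenced on an Illumina HiSeq 2500, and fitness is the DiMSum error-weighted combination of wild-type-normalised replicate fold changes, kanamycin versus none.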

Sequence	self-splicing fitness (ln) (30 °C)	self-splicing fitness (ln) (37 °C)
GCAUAGCAAUAUUACGAAAC	-2.18 ± 0.12	-0.684 ± 0.1
GCAUAGCAAUAUUACGAAUG	-2.33 ± 0.096	-1.85 ± 0.12
GCAUAGCAAUAUUACGACCG	-0.896 ± 0.17	0.516 ± 0.14
GCAUAGCAAUAUUACGACGA	-1.06 ± 0.14	-0.364 ± 0.14
GCAUAGCAAUAUUACGAGUA	-1.63 ± 0.15	-1.23 ± 0.12
GCAUAGCAAUAUUACGAUCC	-0.993 ± 0.19	0.0935 ± 0.28
GCAUAGCAAUAUUACGAUCU	-0.849 ± 0.075	-0.178 ± 0.081
GCAUAGCAAUAUUACGCCCC	-0.129 ± 0.26	0.692 ± 0.34
GCAUAGCAAUAUUACGCUAU	-4.09 ± 0.28	-1.97 ± 0.25
GCAUAGCAAUAUUACGCUCA	-0.595 ± 0.12	-0.211 ± 0.15
GCAUAGCAAUAUUACGCUCU	-1.81 ± 0.12	-0.894 ± 0.12
GCAUAGCAAUAUUACGCUGA	-2.69 ± 0.24	-1.06 ± 0.14
GCAUAGCAAUAUUACGCUUU	-3.17 ± 0.2	-2.88 ± 0.18
GCAUAGCAAUAUUACGGAAA	-1.6 ± 0.31	-1.88 ± 0.25
GCAUAGCAAUAUUACGGAUG	-3.15 ± 0.15	-0.657 ± 0.13
GCAUAGCAAUAUUACGGCCA	-1.05 ± 0.19	-1.17 ± 0.21
GCAUAGCAAUAUUACGUACA	-1.56 ± 0.15	-0.421 ± 0.13
GCAUAGCAAUAUUACGUGAU	-1.64 ± 0.066	-0.927 ± 0.08
GCAUAGCAAUAUUACGUGCA	-2.74 ± 0.17	-1.21 ± 0.14
GCAUAGCAAUAUUACGUGCU	-3.32 ± 0.15	-3.44 ± 0.26
GCAUAGCAAUAUUACGUUAG	-2.48 ± 0.12	-1.96 ± 0.15
GCAUAGCAAUAUUACGUUGG	-3.88 ± 0.22	-2.28 ± 0.18
GCAUAGCAAUAUUACGUUUG	-3.21 ± 0.13	-1.91 ± 0.15
GCCAAGCAAUAUUACGAACA	-2.36 ± 0.16	-2.2 ± 0.17

Sequence	self-splicing fitness (ln) (30 °C)	self-splicing fitness (ln) (37 °C)
GCCAAGCAAUAUUACGAUAC	-2.45 ± 0.17	-0.963 ± 0.14
GCCAAGCAAUAUUACGAUUU	-2.95 ± 0.096	-1.15 ± 0.09
GCCAAGCAAUAUUACGCAGU	-2.82 ± 0.13	-1.22 ± 0.14
GCCAAGCAAUAUUACGCGAA	-1.2 ± 0.1	-0.257 ± 0.11
GCCAAGCAAUAUUACGCUUA	-1.02 ± 0.086	-0.264 ± 0.11
GCCAAGCAAUAUUACGGACU	-1.16 ± 0.077	-0.389 ± 0.1
GCCAAGCAAUAUUACGGAUU	-1.2 ± 0.056	-0.294 ± 0.08
GCCAAGCAAUAUUACGGGAC	-3.02 ± 0.15	-0.694 ± 0.099
GCCAAGCAAUAUUACGGGCA	-2.12 ± 0.14	-0.482 ± 0.12
GCCAAGCAAUAUUACGUAAA	-1.63 ± 0.1	-0.72 ± 0.13
GCCAAGCAAUAUUACGUGGU	-3.65 ± 0.13	-3.27 ± 0.17
GCCAAGCAAUAUUACGUGUG	-1.8 ± 0.07	-0.823 ± 0.08
GCCAAGCAAUAUUACGUUAG	-1.93 ± 0.12	-2.64 ± 0.2
GCCAAGCAAUAUUACGUUCU	-2.45 ± 0.081	-1.53 ± 0.088
GCCCAGCAAUAUUACGAAGC	-2.36 ± 0.19	-0.479 ± 0.2
GCCCAGCAAUAUUACGAGAU	-1.54 ± 0.12	-0.957 ± 0.091
GCCCAGCAAUAUUACGAUCA	-1.65 ± 0.11	-0.633 ± 0.1
GCCCAGCAAUAUUACGAUGA	-2.14 ± 0.18	-0.287 ± 0.14
GCCCAGCAAUAUUACGAUGU	0.0553 ± 0.048	0.51 ± 0.069
GCCCAGCAAUAUUACGCGUC	-1.17 ± 0.067	-0.202 ± 0.075
GCCCAGCAAUAUUACGCUGG	-2.86 ± 0.15	-3.32 ± 0.28
GCCCAGCAAUAUUACGGCAU	-3.47 ± 0.13	-1.01 ± 0.1
GCCCAGCAAUAUUACGGUAG	-4.78 ± 0.23	-2.51 ± 0.19
GCCCAGCAAUAUUACGGUCC	-3.39 ± 0.18	-1.97 ± 0.28

Sequence	self-splicing fitness (ln) (30 °C)	self-splicing fitness (ln) (37 °C)
GCCCAGCAAUAUUACGUAAC	-0.899 ± 0.074	-0.153 ± 0.1
GCCCAGCAAUAUUACGUAUG	-3.42 ± 0.18	-2.09 ± 0.18
GCCCAGCAAUAUUACGUCAG	-3.98 ± 0.2	-2.82 ± 0.23
GCCCAGCAAUAUUACGUGAC	-1.38 ± 0.057	-0.584 ± 0.069
GCCCAGCAAUAUUACGUUGU	-0.273 ± 0.044	0.021 ± 0.056
GCCCAGCAAUAUUACGUUUG	-3.95 ± 0.14	-1.84 ± 0.14
GCCGAGCAAUAUUACGAAAG	-2.81 ± 0.33	–
GCCGAGCAAUAUUACGACUG	-2.66 ± 0.23	-3.53 ± 0.42
GCCGAGCAAUAUUACGCCUC	-2.91 ± 0.42	-1.88 ± 0.4
GCCGAGCAAUAUUACGCGCU	-1.78 ± 0.2	-2.77 ± 0.34
GCCGAGCAAUAUUACGCGUC	-0.898 ± 0.14	-0.0598 ± 0.2
GCCGAGCAAUAUUACGGAAA	-0.987 ± 0.1	-0.953 ± 0.1
GCCGAGCAAUAUUACGGAUA	-1.68 ± 0.14	-0.192 ± 0.13
GCCGAGCAAUAUUACGGAUU	-1.37 ± 0.08	-0.945 ± 0.092
GCCGAGCAAUAUUACGGCGA	-0.848 ± 0.21	-1.42 ± 0.24
GCCGAGCAAUAUUACGGCGU	-2.55 ± 0.13	-0.897 ± 0.1
GCCGAGCAAUAUUACGGCUA	-2.04 ± 0.35	-1.35 ± 0.27
GCCGAGCAAUAUUACGGCUG	-3.31 ± 0.34	-2.96 ± 0.38
GCCGAGCAAUAUUACGGGAC	-0.849 ± 0.11	-1.12 ± 0.15
GCCGAGCAAUAUUACGGGCG	-1.18 ± 0.17	-0.688 ± 0.18
GCCGAGCAAUAUUACGGGGC	-4.27 ± 0.39	-2.28 ± 0.27
GCCGAGCAAUAUUACGGUCC	-3.18 ± 0.29	-1.23 ± 0.33
GCCGAGCAAUAUUACGUAUC	-2.66 ± 0.16	-1.75 ± 0.13
GCCGAGCAAUAUUACGUCCA	-1.27 ± 0.48	-1.32 ± 0.32

Sequence	self-splicing fitness (ln) (30 °C)	self-splicing fitness (ln) (37 °C)
GCCGAGCAAUAUUACGUCCC	-0.316 ± 0.14	-0.826 ± 0.22
GCCGAGCAAUAUUACGUGAU	-1.01 ± 0.073	-0.638 ± 0.088
GCCGAGCAAUAUUACGUGGU	-3.39 ± 0.14	-2.47 ± 0.16
GCCGAGCAAUAUUACGUUAA	-3.34 ± 0.27	-1.78 ± 0.18
GCCUAGCAAUAUUACGAAAA	-3.05 ± 0.33	-1.04 ± 0.26
GCCUAGCAAUAUUACGAACC	-1.07 ± 0.27	0.0441 ± 0.29
GCCUAGCAAUAUUACGAAUC	-1.36 ± 0.066	0.0359 ± 0.086
GCCUAGCAAUAUUACGAAUG	-2.57 ± 0.18	-2.43 ± 0.25
GCCUAGCAAUAUUACGACCG	-1.8 ± 0.34	-0.867 ± 0.39
GCCUAGCAAUAUUACGACGG	-3.6 ± 0.31	-2.37 ± 0.27
GCCUAGCAAUAUUACGAGGC	-4.1 ± 0.36	-1.77 ± 0.26
GCCUAGCAAUAUUACGAUCC	-1.08 ± 0.093	0.0207 ± 0.13
GCCUAGCAAUAUUACGAUGG	-3.13 ± 0.21	-2.05 ± 0.21
GCCUAGCAAUAUUACGCCUA	–	-2.79 ± 0.43
GCCUAGCAAUAUUACGCGUA	-1.89 ± 0.13	-0.683 ± 0.12
GCCUAGCAAUAUUACGCUAU	-0.383 ± 0.11	-0.105 ± 0.17
GCCUAGCAAUAUUACGCUCA	-1.68 ± 0.16	-0.0373 ± 0.17
GCCUAGCAAUAUUACGCUCG	-2.7 ± 0.2	-2.06 ± 0.3
GCCUAGCAAUAUUACGCUGC	–	-1.32 ± 0.21
GCCUAGCAAUAUUACGCUUU	-0.497 ± 0.097	-0.0274 ± 0.12
GCCUAGCAAUAUUACGGACC	-1.6 ± 0.19	-1.31 ± 0.28
GCCUAGCAAUAUUACGGACU	-1.01 ± 0.1	-0.221 ± 0.11
GCCUAGCAAUAUUACGGAUG	-1.84 ± 0.11	-0.882 ± 0.12
GCCUAGCAAUAUUACGGCAU	-3.27 ± 0.27	-0.94 ± 0.13
